Laboratory results published in patent US20190300590A1 (PROTAGONIST THERAPEUTICS, published 2019).
Bridges are numbered along the chain shown (N, C = ends). [ ]: non-standard residue; d: D form. Phe(3,4-(OMe)2) = COc1ccc(C[C@H](N)C(=O)O)cc1OC; Phe(4-CONH2) = NC(=O)c1ccc(C[C@H](N)C(=O)O)cc1; 1Nal = N[C@@H](Cc1cccc2ccccc12)C(=O)O; 2Nal = N[C@@H](Cc1ccc2ccccc2c1)C(=O)O; AEF = NCCOc1ccc(C[C@H](N)C(=O)O)cc1; Pen = CC(C)(S)[C@H](N)C(=O)O; αMeV = CC(C)[C@](C)(N)C(=O)O; Aib = CC(C)(N)C(=O)O; PEG1 = NCCOCCC(=O)O; Sar = CNCC(=O)O

T1: IL-23R on DB cells (human, UniProt Q5VWK5 24-629)
T1 sequence (looked up): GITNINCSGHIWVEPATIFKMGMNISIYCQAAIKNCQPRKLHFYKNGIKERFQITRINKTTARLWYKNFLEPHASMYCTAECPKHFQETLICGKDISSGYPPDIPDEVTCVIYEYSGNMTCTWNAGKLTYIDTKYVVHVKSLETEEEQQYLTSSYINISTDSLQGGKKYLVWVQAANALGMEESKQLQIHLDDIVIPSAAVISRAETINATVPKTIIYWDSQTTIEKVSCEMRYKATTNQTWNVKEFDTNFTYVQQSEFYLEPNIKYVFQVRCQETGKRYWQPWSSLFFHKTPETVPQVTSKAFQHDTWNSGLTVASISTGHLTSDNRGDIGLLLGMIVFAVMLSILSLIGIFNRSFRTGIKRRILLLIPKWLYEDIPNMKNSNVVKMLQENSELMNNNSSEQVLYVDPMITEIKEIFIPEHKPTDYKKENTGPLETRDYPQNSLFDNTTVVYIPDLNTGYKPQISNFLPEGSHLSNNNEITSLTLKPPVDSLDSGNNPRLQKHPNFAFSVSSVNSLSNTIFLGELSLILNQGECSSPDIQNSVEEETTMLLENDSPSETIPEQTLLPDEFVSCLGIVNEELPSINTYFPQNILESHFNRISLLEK

T2: IL23R_huFC (human, UniProt Q5VWK5 24-353)
T2 sequence (looked up): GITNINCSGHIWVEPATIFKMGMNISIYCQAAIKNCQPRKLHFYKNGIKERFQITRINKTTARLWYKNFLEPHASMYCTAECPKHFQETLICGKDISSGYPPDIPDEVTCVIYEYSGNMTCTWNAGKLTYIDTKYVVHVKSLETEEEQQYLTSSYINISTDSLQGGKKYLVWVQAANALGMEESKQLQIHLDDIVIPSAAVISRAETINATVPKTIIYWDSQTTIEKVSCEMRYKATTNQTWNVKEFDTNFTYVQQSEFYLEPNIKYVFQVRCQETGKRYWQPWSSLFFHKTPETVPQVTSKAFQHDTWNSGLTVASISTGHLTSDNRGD

B1: Ac-(D)Asp-[Pen]-QTWQ-[Pen]-[Phe[4-(2-aminoethoxy)]-[2-Nal]-[Aib]-[Lys(Ac)]-NN-NH2 (peptide)
peptide: Ac-[dD][Pen]QTWQ[Pen][AEF][2Nal][Aib]K(Ac)NN-NH2
modifications: disulfide 2-7
SMILES: CC(=O)NCCCC[C@H](NC(=O)C(C)(C)NC(=O)[C@H](Cc1ccc2ccccc2c1)NC(=O)[C@H](Cc1ccc(OCCN)cc1)NC(=O)[C@H]1NC(=O)[C@H](CCC(N)=O)NC(=O)[C@H](Cc2c[nH]c3ccccc23)NC(=O)[C@H]([C@@H](C)O)NC(=O)[C@H](CCC(N)=O)NC(=O)[C@@H](NC(=O)[C@@H](CC(=O)O)NC(C)=O)C(C)(C)SSC1(C)C)C(=O)N[C@@H](CC(N)=O)C(=O)N[C@@H](CC(N)=O)C(N)=O
B2: Ac-R-[Pen]-QTWQ-[Pen]-[Phe[4-(2-aminoethoxy)]-[2-Nal]-[Aib]-[Lys(Ac)]-NN-NH2 (peptide)
peptide: Ac-R[Pen]QTWQ[Pen][AEF][2Nal][Aib]K(Ac)NN-NH2
modifications: disulfide 2-7
SMILES: CC(=O)NCCCC[C@H](NC(=O)C(C)(C)NC(=O)[C@H](Cc1ccc2ccccc2c1)NC(=O)[C@H](Cc1ccc(OCCN)cc1)NC(=O)[C@H]1NC(=O)[C@H](CCC(N)=O)NC(=O)[C@H](Cc2c[nH]c3ccccc23)NC(=O)[C@H]([C@@H](C)O)NC(=O)[C@H](CCC(N)=O)NC(=O)[C@@H](NC(=O)[C@H](CCCNC(=N)N)NC(C)=O)C(C)(C)SSC1(C)C)C(=O)N[C@@H](CC(N)=O)C(=O)N[C@@H](CC(N)=O)C(N)=O
B3: Ac-(D)Arg-[Pen]-QTWQ-[Pen]-[Phe[4-(2-aminoethoxy)]-[2-Nal]-[Aib]-[Lys(Ac)]-NN-NH2 (peptide)
peptide: Ac-[dR][Pen]QTWQ[Pen][AEF][2Nal][Aib]K(Ac)NN-NH2
modifications: disulfide 2-7
SMILES: CC(=O)NCCCC[C@H](NC(=O)C(C)(C)NC(=O)[C@H](Cc1ccc2ccccc2c1)NC(=O)[C@H](Cc1ccc(OCCN)cc1)NC(=O)[C@H]1NC(=O)[C@H](CCC(N)=O)NC(=O)[C@H](Cc2c[nH]c3ccccc23)NC(=O)[C@H]([C@@H](C)O)NC(=O)[C@H](CCC(N)=O)NC(=O)[C@@H](NC(=O)[C@@H](CCCNC(=N)N)NC(C)=O)C(C)(C)SSC1(C)C)C(=O)N[C@@H](CC(N)=O)C(=O)N[C@@H](CC(N)=O)C(N)=O
B4: Ac-Phe-[Pen]-QTWQ-[Pen]-[Phe[4-(2-aminoethoxy)]-[2-Nal]-[Aib]-[Lys(Ac)]-NN-NH2 (peptide)
peptide: Ac-F[Pen]QTWQ[Pen][AEF][2Nal][Aib]K(Ac)NN-NH2
modifications: disulfide 2-7
SMILES: CC(=O)NCCCC[C@H](NC(=O)C(C)(C)NC(=O)[C@H](Cc1ccc2ccccc2c1)NC(=O)[C@H](Cc1ccc(OCCN)cc1)NC(=O)[C@H]1NC(=O)[C@H](CCC(N)=O)NC(=O)[C@H](Cc2c[nH]c3ccccc23)NC(=O)[C@H]([C@@H](C)O)NC(=O)[C@H](CCC(N)=O)NC(=O)[C@@H](NC(=O)[C@H](Cc2ccccc2)NC(C)=O)C(C)(C)SSC1(C)C)C(=O)N[C@@H](CC(N)=O)C(=O)N[C@@H](CC(N)=O)C(N)=O
B5: Ac-(D)Phe-[Pen]-QTWQ-[Pen]-[Phe[4-(2-aminoethoxy)]-[2-Nal]-[Aib]-[Lys(Ac)]-NN-NH2 (peptide)
peptide: Ac-[dF][Pen]QTWQ[Pen][AEF][2Nal][Aib]K(Ac)NN-NH2
modifications: disulfide 2-7
SMILES: CC(=O)NCCCC[C@H](NC(=O)C(C)(C)NC(=O)[C@H](Cc1ccc2ccccc2c1)NC(=O)[C@H](Cc1ccc(OCCN)cc1)NC(=O)[C@H]1NC(=O)[C@H](CCC(N)=O)NC(=O)[C@H](Cc2c[nH]c3ccccc23)NC(=O)[C@H]([C@@H](C)O)NC(=O)[C@H](CCC(N)=O)NC(=O)[C@@H](NC(=O)[C@@H](Cc2ccccc2)NC(C)=O)C(C)(C)SSC1(C)C)C(=O)N[C@@H](CC(N)=O)C(=O)N[C@@H](CC(N)=O)C(N)=O
B6: Ac-[(D)Lys]-CRDWQCY-[1-Nal]-HTH-[ Sarc]-[AEP]-(D)Arg]-NH2 (peptide)
peptide: Ac-[dK]CRDWQCY[1Nal]HTH[Sar][PEG1][dR]-NH2
modifications: disulfide 2-7
SMILES: CC(=O)N[C@H](CCCCN)C(=O)N[C@H]1CSSC[C@@H](C(=O)N[C@@H](Cc2ccc(O)cc2)C(=O)N[C@@H](Cc2cccc3ccccc23)C(=O)N[C@@H](Cc2c[nH]cn2)C(=O)N[C@H](C(=O)N[C@@H](Cc2c[nH]cn2)C(=O)N(C)CC(=O)NCCOCCC(=O)N[C@H](CCCNC(=N)N)C(N)=O)[C@@H](C)O)NC(=O)[C@H](CCC(N)=O)NC(=O)[C@H](Cc2c[nH]c3ccccc23)NC(=O)[C@H](CC(=O)O)NC(=O)[C@H](CCCNC(=N)N)NC1=O

What follows are binders tested against T1, IL-23R on DB cells (assay: cell-based or functional assay).
B1 was tested, and the “pStat3 HTRF IC50” value was under 10 nM. For B2, the “pStat3 HTRF IC50” value was under 10 nM. With B3 the “pStat3 HTRF IC50” value was under 10 nM. With B4 the “pStat3 HTRF IC50” value was under 10 nM. In the case of B5, the “pStat3 HTRF IC50” value is reported as under 10 nM. XXQTWQXFXXKNN (Ac; 2-Nal twice; Pen-Pen disulfide; Phe[4-(2-aminoethoxy)]; Aib; Lys(Ac); NH2) [Ac-[2-Nal]-[Pen]-QTWQ-[Pen]-[Phe[4-(2-aminoethoxy)]-[2-Nal]-[Aib]-[Lys(Ac)]-NN-NH2] was tested, and the “pStat3 HTRF IC50” value was under 10 nM. Ac-[Pen]QTWQ[Pen][Phe(4-CONH2)][Phe(3,4-(OMe)2)][αMeV]K(Ac)NN-NH2 (disulfide 1-6 (inferred)) [Ac-[Pen]-QTWQ[Pen]-[Phe(4-CONH2)]-[Phe(3,4-OMe2)]-[α-MeVal]-[Lys(Ac)]-NN-NH2] was tested, and the “pStat3 HTRF IC50” value was 10 to 25 nM.

Each binder was assayed against T2, IL23R_huFC (assay: IL23-IL23R competitive ELISA).
An IC50 of 500 to 1000 nM was found for Ac-CADWVCYWHEFG-NH2 (disulfide 1-6 (inferred)) [Ac-CADWVCYWHEFG-NH2] in this work. An IC50 of 500 to 1000 nM was found for Ac-CRDWVCYWHTFG-NH2 (disulfide 1-6 (inferred)) [Ac-CRDWVCYWHTFG-NH2] in this work. An IC50 of 500 to 1000 nM was found for H-CTDWKCYWHEFG-NH2 (disulfide 1-6 (inferred)) [Hy-CTDWKCYWHEFG-NH2] in this work. An IC50 of 500 to 1000 nM was found for H-CRTWTCYWHVYG-NH2 (disulfide 1-6 (inferred)) [Hy-CRTWTCYWHVYG-NH2] in this work. An IC50 of 500 to 1000 nM was found for H-CPNWECYWHRFG-NH2 (disulfide 1-6 (inferred)) [Hy-CPNWECYWHRFG-NH2] in this work. An IC50 of 500 to 1000 nM was found for H-CADWMCYWHEYG-NH2 (disulfide 1-6 (inferred)) [Hy-CADWMCYWHEYG-NH2] in this work. An IC50 of 500 to 1000 nM was found for H-CTTWKCYWHQYG-NH2 (disulfide 1-6 (inferred)) [Hy-CTTWKCYWHQYG-NH2] in this work. An IC50 of 500 to 1000 nM was found for H-CSNWECYWHHYG-NH2 (disulfide 1-6 (inferred)) [Hy-CSNWECYWHHYG-NH2] in this work. An IC50 of 500 to 1000 nM was found for H-CSDWVCYWHVYG-NH2 (disulfide 1-6 (inferred)) [Hy-CSDWVCYWHVYG-NH2] in this work. An IC50 of 500 to 1000 nM was found for CADWVCYXHTFG ([1-Nal]; -NH2; disulfide) [Hy-CADWVCY-[1-Nal]-HTFG-NH2] in this work. An IC50 of 500 to 1000 nM was found for CADWVCYXHTFG ([2-Nal]; -NH2; disulfide) [Hy-CADWVCY-[2-Nal]-HTFG-NH2] in this work. An IC50 of 500 to 1000 nM was found for H-CADWVCYWHTFG-NH2 (disulfide 1-6 (inferred)) [Hy-CADWVCYWHTFG-NH2] in this work. An IC50 of 500 to 1000 nM was found for Ac-CADWVCYWHFHQLRDA-NH2 (disulfide 1-6 (inferred)) [Ac-CADWVCYWHFHQLRDA-NH2] in this work. An IC50 of 500 to 1000 nM was found for Ac-CADWVCYWHEHSERVG-NH2 (disulfide 1-6 (inferred)) [Ac-CADWVCYWHEHSERVG-NH2] in this work. An IC50 of 500 to 1000 nM was found for Ac-CADWVCYWHNHSEGSG-NH2 (disulfide 1-6 (inferred)) [Ac-CADWVCYWHNHSEGSG-NH2] in this work. An IC50 of 500 to 1000 nM was found for Ac-CADWVCYWHRSTGGQH-NH2 (disulfide 1-6 (inferred)) [Ac-CADWVCYWHRSTGGQH-NH2] in this work. An IC50 of 500 to 1000 nM was found for B6 in this work. An IC50 of 500 to 1000 nM was found for Ac-TQFDCRTWECYWHTFG-NH2 (disulfide 5-10 (inferred)) [Ac-TQFDCRTWECYWHTFG-NH2] in this work. An IC50 of 500 to 1000 nM was found for Ac-GGVECNDWQCYWHTFG-NH2 (disulfide 5-10 (inferred)) [Ac-GGVECNDWQCYWHTFG-NH2] in this work. An IC50 of 500 to 1000 nM was found for Ac-REGTCSTWKCYWHTFG-NH2 (disulfide 5-10 (inferred)) [Ac-REGTCSTWKCYWHTFG-NH2] in this work. An IC50 of 500 to 1000 nM was found for Ac-DTPRCRTWECYWHTFG-NH2 (disulfide 5-10 (inferred)) [Ac-DTPRCRTWECYWHTFG-NH2] in this work. An IC50 of 500 to 1000 nM was found for Ac-GGGECENWECYWHTFG-NH2 (disulfide 5-10 (inferred)) [Ac-GGGECENWECYWHTFG-NH2] in this work. An IC50 of 500 to 1000 nM was found for Ac-GDHKCSSWECYWHTFG-NH2 (disulfide 5-10 (inferred)) [Ac-GDHKCSSWECYWHTFG-NH2] in this work. An IC50 of 500 to 1000 nM was found for Ac-GSVHCMTWECYWHTFG-NH2 (disulfide 5-10 (inferred)) [Ac-GSVHCMTWECYWHTFG-NH2] in this work.
